# Assay results taken from paper doi:10.1101/2022.04.03.486873 (bioRxiv, 2022).
# T1: UPF2L (120-1227) (UniProt Q9HAU5 120-1227)
# T1 sequence: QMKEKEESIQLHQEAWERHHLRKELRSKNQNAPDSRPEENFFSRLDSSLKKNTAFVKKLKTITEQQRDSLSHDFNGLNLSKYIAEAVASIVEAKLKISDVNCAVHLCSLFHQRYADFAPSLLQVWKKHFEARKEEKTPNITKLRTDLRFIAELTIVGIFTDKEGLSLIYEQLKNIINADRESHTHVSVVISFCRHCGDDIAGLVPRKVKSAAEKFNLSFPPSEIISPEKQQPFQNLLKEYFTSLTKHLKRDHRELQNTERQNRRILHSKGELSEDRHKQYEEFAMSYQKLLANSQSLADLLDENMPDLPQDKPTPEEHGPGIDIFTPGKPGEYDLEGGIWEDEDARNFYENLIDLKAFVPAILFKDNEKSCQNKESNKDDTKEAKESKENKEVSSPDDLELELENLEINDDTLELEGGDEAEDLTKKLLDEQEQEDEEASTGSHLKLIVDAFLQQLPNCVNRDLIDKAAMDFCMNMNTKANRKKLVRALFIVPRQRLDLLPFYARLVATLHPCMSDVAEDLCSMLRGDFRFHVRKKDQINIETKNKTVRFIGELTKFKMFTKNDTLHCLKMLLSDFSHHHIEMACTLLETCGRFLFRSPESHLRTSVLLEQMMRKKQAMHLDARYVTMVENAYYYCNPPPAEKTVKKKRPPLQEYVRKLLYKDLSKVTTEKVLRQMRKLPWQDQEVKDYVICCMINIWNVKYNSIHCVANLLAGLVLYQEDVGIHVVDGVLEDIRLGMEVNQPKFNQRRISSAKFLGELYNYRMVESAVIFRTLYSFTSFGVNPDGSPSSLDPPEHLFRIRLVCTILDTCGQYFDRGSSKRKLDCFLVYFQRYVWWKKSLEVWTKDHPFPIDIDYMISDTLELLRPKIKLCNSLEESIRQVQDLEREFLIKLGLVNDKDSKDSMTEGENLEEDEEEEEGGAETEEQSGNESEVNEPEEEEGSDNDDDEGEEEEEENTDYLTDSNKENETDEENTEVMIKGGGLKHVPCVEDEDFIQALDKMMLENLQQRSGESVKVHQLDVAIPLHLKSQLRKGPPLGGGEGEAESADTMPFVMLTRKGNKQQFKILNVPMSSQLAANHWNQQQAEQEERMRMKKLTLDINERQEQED
# B1: UPF3B-FL (residues 1-470) (natural protein)
# chain: MKEEKEHRPKEKRVTLLTPAGATGSGGGTSGDSSKGEDKQDRNKEKKEALSKVVIRRLPPTLTKEQLQEHLQPMPEHDYFEFFSNDTSLYPHMYARAYINFKNQEDIILFRDRFDGYVFLDNKGQEYPAIVEFAPFQKAAKKKTKKRDTKVGTIDDDPEYRKFLESYATDNEKMTSTPETLLEEIEAKNRELIAKKTTPLLSFLKNKQRMREEKREERRRREIERKRQREEERRKWKEEEKRKRKDIEKLKKIDRIPERDKLKDEPKIKLLKKPEKGDEKELDKREKAKKLDKENLSDERASGQSCTLPKRSDSELKDEKPKRPEDESGRDYREREREYERDQERILRERERLKRQEEERRRQKERYEKEKTFKRKEEEMKKEKDTLRDKGKKAESTESIGSSEKTEKKEEVVKRDRIRNKDRPAMQLYQPGARSRNRLCPPDDSTKSGDSAAERKQESGISHRKEGGEE
# B2: Avi-UPF2-MIF4GIII (biotinylated) (domain or fragment)
# chain: EKTVKKKRPPLQEYVRKLLYKDLSKVTTEKVLRQMRKLPWQDQEVKDYVICCMINIWNVKYNSIHCVANLLAGLVLYQEDVGIHVVDGVLEDIRLGMEVNQPKFNQRRISSAKFLGELYNYRMVESAVIFRTLYSFTSFGVNPDGSPSSLDPPEHLFRIRLVCTILDTCGQYFDRGSSKRKLDCFLVYFQRYVWWKKSLEVWTKDHPFPIDIDYMISDTLELLRPKIKLCNSLEESIRQVQDLEREFLIKLGLVNDKDSKDSMTEGENLEEDEEEEEGGAETEEQSGNESEVNE
# modifications: biotin on the Avi tag (BirA)
# Biological target: Avi-UPF2-MIF4GIII (biotinylated) (UniProt Q9HAU5)
# Experiment: SPR
row,Kd [nM],Molecule
1,0.048,full-length UPF3A-WT (from UniProt Q9H1J1 1-476) (natural protein)

# Biological target: T1, UPF2L (120-1227)
# Experiment: native gel or EMSA
row,binding result,Molecule
1,binds,B1

# Biological target: B1
# Experiment: SPR
row,Kd [nM],Molecule
1,0.47,B2

# Biological target: B2
# Experiment: SPR
row,Kd [nM],Molecule
1,3.6,UPF3B-41-189 (domain or fragment) DRNKEKKEALSKVVIRRLPPTLTKEQLQEHLQPMPEHDYFEFFSNDTSLYPHMYARAYINFKNQEDIILFRDRFDGYVFLDNKGQEYPAIVEFAPFQKAAKKKTKKRDTKVGTIDDDPEYRKFLESYATDNEKMTSTPETLLEEIEAKN
2,~130,UPF3B-41-189 Y160A+Y167A (domain or fragment) DRNKEKKEALSKVVIRRLPPTLTKEQLQEHLQPMPEHDYFEFFSNDTSLYPHMYARAYINFKNQEDIILFRDRFDGYVFLDNKGQEYPAIVEFAPFQKAAKKKTKKRDTKVGTIDDDPEARKFLESAATDNEKMTSTPETLLEEIEAKN
3,7.4,UPF3B-41-189 Y167D (domain or fragment) DRNKEKKEALSKVVIRRLPPTLTKEQLQEHLQPMPEHDYFEFFSNDTSLYPHMYARAYINFKNQEDIILFRDRFDGYVFLDNKGQEYPAIVEFAPFQKAAKKKTKKRDTKVGTIDDDPEYRKFLESDATDNEKMTSTPETLLEEIEAKN
4,3.3,UPF3B-41-189 Y167A (domain or fragment) DRNKEKKEALSKVVIRRLPPTLTKEQLQEHLQPMPEHDYFEFFSNDTSLYPHMYARAYINFKNQEDIILFRDRFDGYVFLDNKGQEYPAIVEFAPFQKAAKKKTKKRDTKVGTIDDDPEYRKFLESAATDNEKMTSTPETLLEEIEAKN
5,~130,UPF3B-41-189 Y160D+Y167D (domain or fragment) DRNKEKKEALSKVVIRRLPPTLTKEQLQEHLQPMPEHDYFEFFSNDTSLYPHMYARAYINFKNQEDIILFRDRFDGYVFLDNKGQEYPAIVEFAPFQKAAKKKTKKRDTKVGTIDDDPEDRKFLESDATDNEKMTSTPETLLEEIEAKN
6,90,UPF3B-41-189 F163A (domain or fragment) DRNKEKKEALSKVVIRRLPPTLTKEQLQEHLQPMPEHDYFEFFSNDTSLYPHMYARAYINFKNQEDIILFRDRFDGYVFLDNKGQEYPAIVEFAPFQKAAKKKTKKRDTKVGTIDDDPEYRKALESYATDNEKMTSTPETLLEEIEAKN
7,88,UPF3B-41-189 Y160A (domain or fragment) DRNKEKKEALSKVVIRRLPPTLTKEQLQEHLQPMPEHDYFEFFSNDTSLYPHMYARAYINFKNQEDIILFRDRFDGYVFLDNKGQEYPAIVEFAPFQKAAKKKTKKRDTKVGTIDDDPEARKFLESYATDNEKMTSTPETLLEEIEAKN
8,140,UPF3B-41-189 Y160D (domain or fragment) DRNKEKKEALSKVVIRRLPPTLTKEQLQEHLQPMPEHDYFEFFSNDTSLYPHMYARAYINFKNQEDIILFRDRFDGYVFLDNKGQEYPAIVEFAPFQKAAKKKTKKRDTKVGTIDDDPEDRKFLESYATDNEKMTSTPETLLEEIEAKN
9,720,UPF3B-41-143 (domain or fragment) DRNKEKKEALSKVVIRRLPPTLTKEQLQEHLQPMPEHDYFEFFSNDTSLYPHMYARAYINFKNQEDIILFRDRFDGYVFLDNKGQEYPAIVEFAPFQKAAKKK
10,0.22,UPF3A-58-206-Iso1 (domain or fragment) KPREEKRTALSKVVIRRLPPGLTKEQLEEQLRPLPAHDYFEFFAADLSLYPHLYSRAYINFRNPDDILLFRDRFDGYIFLDSKGLEYPAVVEFAPFQKIAKKKLRKKDAKTGSIEDDPEYKKFLETYCVEEEKTSANPETLLGEMEAKT
